First the molecules themselves.
B1: L77S2 (antibody, IgG1, V domains shown)
VH: DVQLQQSGPELVKPGNSVKISCKAAGYSFTGYSVNWVKERHGKSLEWIGRINPYNGDIFNNQKFKGKATLTVDKSSSTAHMELRSLTSEDSAVYYCARGTTVGGAWFAYWGQGTLVTVSA
VL: VIVLTQSPASLAVSLGQRAAISCRASESVDSYGYSFLHWYQQKPGQPPKLLIYLASNLESGIPARFSGSGSGTDFTLTINPVEADDVATYYCQQSNEDLMYTFGGGTKLEIK
notes: also called Murine 77; mouse anti-human ILT4 antibody L77S2
B2: L180S4 (antibody, IgG1, V domains shown)
VH: EVHLQQSGPELVKPGASVKISCKASGYSFIGYFMNWMKQSHGKSLEWIGRINPYNGDIFYNQKFKGKATLTVDKSSTTAHMDLLSLTSEDFAVYYCARGITVAAGSFDVWGTGTTVTVSS
VL: DIVLTQSPASLAVSLGQRATISCRASESVDNYGNTFMHWYQQKPGQPPKLLIYRASNLESGIPARFSGSGSKTDFTLTINPVEADDVATYYCQQSSDHPLTFGAGTKLELS
notes: also called Murine 180; mouse anti-human ILT4 antibody L180S4
B3: Chimeric 77 (antibody, V domains shown)
VH: B1 VH
VL: B1 VL
notes: Chimeric form of L77S2
B4: Chimeric 45 (antibody, V domains shown)
VH: EVQLQQSGPELVKPGASVKISCKASGYTFTDYYMNWVKQSHGKSLEWIGDINPNNGGTSYNQKFKGKATLTVDKSSSTAYMELRSLTSEDSAVYYCARGGAELTGTYWYFDVWGTGTTVTVSS
VL: DIQMTQSPASLSISVGETVTITCRASENIYSNLAWYQQKQGKSPQVLVYGATNLADGVPSRFSGSGSGTQYSLKIKSLQSEDFGSYYCQHFWDSPFTFGSGTKLEIK
notes: Chimeric form of L45S4, captured on anti-human Fc
B5: Chimeric 180 (antibody, V domains shown)
VH: B2 VH
VL: B2 VL
notes: Chimeric form of L180S4
B6: Chimeric 156 (antibody, V domains shown)
VH: QVQLKQSGAELVRPGASVKLSCRASGYTFTDYYMNWVKQRPGQGLEWIARIYPGVYRTHYNEKFKDKATLTAEKSSSTAYMELSSLTSEDSAVYFCARSGYYGGTYEEDAMDYWGQGTSVTVSS
VL: DIQMTQSPASLSVSVGETVTITCRASENIYSNLAWYQQKQGKSPQLLVYAATSLADGVPSRFRGSGSGTQYSLKISSLQSEDFGNYYCQNFWDTPYTFGGGTKLEIK
notes: Chimeric form of L156S3

T1 sequence (Q8N423 22-597): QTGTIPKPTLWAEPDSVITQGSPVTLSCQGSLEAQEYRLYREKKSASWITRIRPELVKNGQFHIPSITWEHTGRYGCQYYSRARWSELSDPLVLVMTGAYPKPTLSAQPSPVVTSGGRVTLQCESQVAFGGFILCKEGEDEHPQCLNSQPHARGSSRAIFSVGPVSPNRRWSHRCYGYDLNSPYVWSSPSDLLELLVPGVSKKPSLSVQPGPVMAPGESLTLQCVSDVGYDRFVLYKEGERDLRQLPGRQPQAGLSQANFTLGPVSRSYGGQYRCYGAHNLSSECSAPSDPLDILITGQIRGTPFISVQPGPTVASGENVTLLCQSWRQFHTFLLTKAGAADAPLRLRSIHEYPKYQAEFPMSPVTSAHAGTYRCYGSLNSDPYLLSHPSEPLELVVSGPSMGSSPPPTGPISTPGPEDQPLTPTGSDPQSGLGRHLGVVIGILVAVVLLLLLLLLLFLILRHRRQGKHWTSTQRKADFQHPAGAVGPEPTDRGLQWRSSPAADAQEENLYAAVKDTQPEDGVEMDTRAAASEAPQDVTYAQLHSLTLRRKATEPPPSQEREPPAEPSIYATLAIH

One test has as its target T1, human ILT4 expressed on cells (human, UniProt Q8N423 22-597).
T1 construct: whole, on cells; also called CHO-S/ILT4 cells; ILT4-CHO cells
Kind of test: flow cytometry, blockade of PE-HLA-G tetramer (5 µg/ml) binding to CHO-S/ILT4 cells, experiment 2. The procedure:
(§1) In the second blocking experiment, the primary antibody dilutions were made by diluting antibody to 15 μg/ml in FACS buffer. Three independent sets of eleven 2.5-fold serial dilutions were then made in FACS buffer from 15 μg/ml to 0.002 μg/ml. Each dilution set was handled independently, and 50 μl from each was added to cells in duplicate. Control wells received FACS buffer with no antibody. Wells were mixed and incubated for 30 minutes at 4 degrees C. Cells were washed twice in FACS buffer.
(§2) In both blocking experiments, phycoerythrin (PE)-conjugated HLA-G tetramer was diluted in FACS buffer to 5 μg/ml and 100 μl per well was added to cells. Cells were incubated at 4 degrees C. for 30 minutes, washed twice in FACS buffer, and resuspended in 250 μl FACS buffer with 0.1 μg/ml propidium iodide.
(§3) Cells were acquired on an Attune flow cytometer, with 5000 propidium iodide-negative cells collected per sample, and MFI was recorded. Relative blocking activity was calculated with the following formula: 100−(Sample MFI−Background MFI)/(Top MFI−Background MFI)*100. Prism software (Graphpad) was used to plot MFI and relative blocking activity for each sample. The blocking potency for each antibody, represented as IC₅₀, was calculated with Prism software.
In general terms: A flow cytometer gives signals particle by particle.
In general, IC50 refers to the midpoint of a concentration-inhibition curve. Low readings indicate inhibition by little substance, high ones a need for much substance. As for B1, the IC50 was 0.103 µg/mL.

With B2, the IC50 was determined as 0.095 µg/mL.

The target in a further test is T2, recombinant human ILT4 (LILRB2) (human, UniProt Q8N423 22-460).
T2 construct: Bought protein (Acro Biosystems or R&D Systems); also called ILTR4
T2 sequence (Q8N423 other isoform, or with tags, fused parts or gaps limits assumed): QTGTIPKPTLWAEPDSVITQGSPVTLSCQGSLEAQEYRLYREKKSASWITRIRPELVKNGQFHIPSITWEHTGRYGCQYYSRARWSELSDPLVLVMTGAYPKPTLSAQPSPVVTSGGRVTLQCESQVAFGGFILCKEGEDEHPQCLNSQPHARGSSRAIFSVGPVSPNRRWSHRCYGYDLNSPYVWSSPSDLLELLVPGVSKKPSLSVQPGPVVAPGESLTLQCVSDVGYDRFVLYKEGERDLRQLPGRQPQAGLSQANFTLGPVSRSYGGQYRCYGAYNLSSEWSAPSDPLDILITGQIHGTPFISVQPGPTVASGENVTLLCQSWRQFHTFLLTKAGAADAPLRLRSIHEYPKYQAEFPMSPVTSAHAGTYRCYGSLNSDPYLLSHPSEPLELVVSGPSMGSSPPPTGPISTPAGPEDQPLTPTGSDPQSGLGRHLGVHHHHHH
Kind of test: SPR, Biacore T200, mAb captured on anti-Fc, ILT4 injected, medium resolution, 25 C. The procedure: (§4) Label-free SPR analysis on a Biacore T200 instrument was utilized to measure antibody affinity to ILT4. CM4 sensor chips from Cytiva Inc. were utilized for all medium resolution analyses. Either anti-mouse Fc specific or anti-human Fc specific capture surfaces were prepared using standard amine coupling chemistry. Mouse, Chimera or Humanized mAbs were captured to their respective surfaces and ILT4 was injected across the surfaces from 101 nM to 0.79 nM in a 2-fold serial dilution series at a flow rate of 100 μL/min. The association phase was followed for 90 sec. while the dissociation phase was followed for 1200 sec. due to the medium resolution analysis implemented here. The sensorgrams were double-referenced and fit globally to a 1:1 interaction model with a term included for mass transport, and the equilibrium dissociation constant was calculated as KD=koff/kₒₙ. […] All kinetic experiments were performed at 25° C. in a buffer consisting of Hepes-buffered saline, pH 7.4, with 0.05% polysorbate 20 (HBS-P+) and 100 μg/ml Bovine Serum Albumin (BSA).
The term kon denotes the rate constant with which the complex forms. Turning to B1, the kon came out at 387000 M⁻¹ s⁻¹.

In the case of B3, the kon is 728000 M⁻¹ s⁻¹.

For orientation: Kd means the equilibrium constant for the complex coming apart. A word on the koff: it is the rate constant with which the complex falls apart. Take B4: the dissociation constant Kd stood at 0.223 nM, the koff came out at 0.000109 s⁻¹ and the kon was found to be 489000 M⁻¹ s⁻¹.

Take B2: the kon is 431000 M⁻¹ s⁻¹.

For B5, the kon was determined as 874000 M⁻¹ s⁻¹.

As for B6, the kon was 373000 M⁻¹ s⁻¹.

The next test has as its target T1, human ILT4 expressed on cells. Description: cell-based or functional assay.
Regarding B1, the “IL-6 secretion by LPS-stimulated M2 macrophages (MSD), fold over control” value turned out to be 2 fold.

With B2, the “IL-6 secretion by LPS-stimulated M2 macrophages (MSD), fold over control” value was 2 fold.

A further test shares this target. Kind of test: flow cytometry blocking assay: ILT4-expressing CHO cells preincubated with antibody, then PE-HLA-G; HLA-G binding MFI falls from about 105000 (no antibody) to near 0. The procedure:
as §1, §2, §3
Turning to B1, the IC50 came out at 0.076 µg/mL.

In turn, B2 returned an IC50 of 0.064 µg/mL.

Another test deals with T2, recombinant human ILT4 (LILRB2). Kind of test: SPR, Biacore T200, medium resolution; koff held at its limit of 4.27e-5 s^-1. The protocol: as §4
Take B1: the Kd was at most 0.111 nM and the koff is at most 4.27e-05 s⁻¹.

On to B3, for which the Kd was at most 0.059 nM and the off-rate constant (koff) was at most 4.27e-05 s⁻¹.

For the molecule B2, the Kd is at most 0.099 nM and the koff was at most 4.27e-05 s⁻¹.

B5: the Kd was at most 0.049 nM and the koff was at most 4.27e-05 s⁻¹.

As for B6, the Kd was at most 0.114 nM and the koff is at most 4.27e-05 s⁻¹.

Values taken from US20260167714A1 (COHERUS BIOSCIENCES, published 2026).
